# Assay results reported in patent publication US20150344570A1 (published 2015).
# T1: FcγRIIa R (extracellular domain, His tag at the C terminus) (human, UniProt P12318 34-217)
# T1 construct: extracellular domain; Soluble analyte in Biacore; also called FcgRIIa R type; 2aR
# T1 sequence (looked up): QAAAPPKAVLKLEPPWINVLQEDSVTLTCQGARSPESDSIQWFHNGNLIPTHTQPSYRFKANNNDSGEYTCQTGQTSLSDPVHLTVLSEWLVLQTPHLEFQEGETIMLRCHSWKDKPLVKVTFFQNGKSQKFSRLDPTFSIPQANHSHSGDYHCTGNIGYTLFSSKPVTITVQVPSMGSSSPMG
# Biological target: T1, FcγRIIa R (extracellular domain, His …)
# Assay: SPR (Biacore), relative binding, control GpH7-B3/GpL16-k0 = 100
# Method: Analysis of interaction between objective antibody and the FcγR was carried out using Biacore T100 (GE Healthcare). HBS-EP+ (GE Healthcare) was used as the running buffer, and the measurement temperature was set to 25° C. Chips produced by immobilizing the antigen peptide by the amine coupling method to a Series S Sencor Chip CM5 (GE Healthcare), or alternatively, chips produced by allowing preliminarily biotinylated antigen peptides to interact with and immobilize onto a Series S Sensor Chip SA (certified) (GE Healthcare) were used. Antibodies of interest were captured onto an antigen peptide-immobilized chip, and allowed to interact to each FcγR diluted with running buffer. To regenerate and repeatedly use the chip, the antibodies captured on the chip were washed off by reacting 10 mM glycine-HCl, pH 1.5.
row,Binder,Ho/Con_2aR
1,"GpH7-B3 variant K326_16H/GpL16-k0 (antibody, human IgG1, kappa, homodimerized; also called Ho Ab) heavy: not shown light: DIVMTQSPLSLPVTPGEPASISCQASESLVHSNRNTYLHWYLQKPGQSPQLLIYKVSNRFSGVPDRFSGSGSGTDFTLKISRVEAEDVGVYYCSQNTHVPPTFGQGTKVEIERTVAAPSVFIFPPSDEQLKSGTASVVCLLNNFYPREAKVQWKVDNALQSGNSQESVTEQDSKDSTYSLSSTLTLSKADYEKHKVYACEVTHQGLSSPVTKSFNRGEC",123 % of control
2,"GpH7-B3 variant L328_03V/GpL16-k0 (antibody, human IgG1, kappa, homodimerized; also called Ho Ab) heavy: not shown light: DIVMTQSPLSLPVTPGEPASISCQASESLVHSNRNTYLHWYLQKPGQSPQLLIYKVSNRFSGVPDRFSGSGSGTDFTLKISRVEAEDVGVYYCSQNTHVPPTFGQGTKVEIERTVAAPSVFIFPPSDEQLKSGTASVVCLLNNFYPREAKVQWKVDNALQSGNSQESVTEQDSKDSTYSLSSTLTLSKADYEKHKVYACEVTHQGLSSPVTKSFNRGEC",116 % of control
3,"GpH7-B3 variant K334_07I/GpL16-k0 (antibody, human IgG1, kappa, homodimerized; also called Ho Ab) heavy: not shown light: DIVMTQSPLSLPVTPGEPASISCQASESLVHSNRNTYLHWYLQKPGQSPQLLIYKVSNRFSGVPDRFSGSGSGTDFTLKISRVEAEDVGVYYCSQNTHVPPTFGQGTKVEIERTVAAPSVFIFPPSDEQLKSGTASVVCLLNNFYPREAKVQWKVDNALQSGNSQESVTEQDSKDSTYSLSSTLTLSKADYEKHKVYACEVTHQGLSSPVTKSFNRGEC",121 % of control
4,"GpH7-B3 variant K326_19Q/GpL16-k0 (antibody, human IgG1, kappa, homodimerized; also called Ho Ab) heavy: not shown light: DIVMTQSPLSLPVTPGEPASISCQASESLVHSNRNTYLHWYLQKPGQSPQLLIYKVSNRFSGVPDRFSGSGSGTDFTLKISRVEAEDVGVYYCSQNTHVPPTFGQGTKVEIERTVAAPSVFIFPPSDEQLKSGTASVVCLLNNFYPREAKVQWKVDNALQSGNSQESVTEQDSKDSTYSLSSTLTLSKADYEKHKVYACEVTHQGLSSPVTKSFNRGEC",137 % of control
5,"GpH7-B3 variant K334_18N/GpL16-k0 (antibody, human IgG1, kappa, homodimerized; also called Ho Ab) heavy: not shown light: DIVMTQSPLSLPVTPGEPASISCQASESLVHSNRNTYLHWYLQKPGQSPQLLIYKVSNRFSGVPDRFSGSGSGTDFTLKISRVEAEDVGVYYCSQNTHVPPTFGQGTKVEIERTVAAPSVFIFPPSDEQLKSGTASVVCLLNNFYPREAKVQWKVDNALQSGNSQESVTEQDSKDSTYSLSSTLTLSKADYEKHKVYACEVTHQGLSSPVTKSFNRGEC",113 % of control
6,"GpH7-B3 variant K334_14T/GpL16-k0 (antibody, human IgG1, kappa, homodimerized; also called Ho Ab) heavy: not shown light: DIVMTQSPLSLPVTPGEPASISCQASESLVHSNRNTYLHWYLQKPGQSPQLLIYKVSNRFSGVPDRFSGSGSGTDFTLKISRVEAEDVGVYYCSQNTHVPPTFGQGTKVEIERTVAAPSVFIFPPSDEQLKSGTASVVCLLNNFYPREAKVQWKVDNALQSGNSQESVTEQDSKDSTYSLSSTLTLSKADYEKHKVYACEVTHQGLSSPVTKSFNRGEC",117 % of control
7,"GpH7-B3 variant K334_03V/GpL16-k0 (antibody, human IgG1, kappa, homodimerized; also called Ho Ab) heavy: not shown light: DIVMTQSPLSLPVTPGEPASISCQASESLVHSNRNTYLHWYLQKPGQSPQLLIYKVSNRFSGVPDRFSGSGSGTDFTLKISRVEAEDVGVYYCSQNTHVPPTFGQGTKVEIERTVAAPSVFIFPPSDEQLKSGTASVVCLLNNFYPREAKVQWKVDNALQSGNSQESVTEQDSKDSTYSLSSTLTLSKADYEKHKVYACEVTHQGLSSPVTKSFNRGEC",123 % of control
8,"GpH7-B3 variant K334_16H/GpL16-k0 (antibody, human IgG1, kappa, homodimerized; also called Ho Ab) heavy: not shown light: DIVMTQSPLSLPVTPGEPASISCQASESLVHSNRNTYLHWYLQKPGQSPQLLIYKVSNRFSGVPDRFSGSGSGTDFTLKISRVEAEDVGVYYCSQNTHVPPTFGQGTKVEIERTVAAPSVFIFPPSDEQLKSGTASVVCLLNNFYPREAKVQWKVDNALQSGNSQESVTEQDSKDSTYSLSSTLTLSKADYEKHKVYACEVTHQGLSSPVTKSFNRGEC",111 % of control
9,"GpH7-B3 variant K334_15Y/GpL16-k0 (antibody, human IgG1, kappa, homodimerized; also called Ho Ab) heavy: not shown light: DIVMTQSPLSLPVTPGEPASISCQASESLVHSNRNTYLHWYLQKPGQSPQLLIYKVSNRFSGVPDRFSGSGSGTDFTLKISRVEAEDVGVYYCSQNTHVPPTFGQGTKVEIERTVAAPSVFIFPPSDEQLKSGTASVVCLLNNFYPREAKVQWKVDNALQSGNSQESVTEQDSKDSTYSLSSTLTLSKADYEKHKVYACEVTHQGLSSPVTKSFNRGEC",112 % of control

# The remaining lines, values ahead:
row,Ho/Con_2aR,Binder
1,124 % of control,"GpH7-B3 variant L328_06M/GpL16-k0 (antibody, human IgG1, kappa, homodimerized; also called Ho Ab) heavy: not shown light: DIVMTQSPLSLPVTPGEPASISCQASESLVHSNRNTYLHWYLQKPGQSPQLLIYKVSNRFSGVPDRFSGSGSGTDFTLKISRVEAEDVGVYYCSQNTHVPPTFGQGTKVEIERTVAAPSVFIFPPSDEQLKSGTASVVCLLNNFYPREAKVQWKVDNALQSGNSQESVTEQDSKDSTYSLSSTLTLSKADYEKHKVYACEVTHQGLSSPVTKSFNRGEC"
2,160 % of control,"GpH7-B3 variant S267_02A/GpL16-k0 (antibody, human IgG1, kappa, homodimerized; also called Ho Ab) heavy: not shown light: DIVMTQSPLSLPVTPGEPASISCQASESLVHSNRNTYLHWYLQKPGQSPQLLIYKVSNRFSGVPDRFSGSGSGTDFTLKISRVEAEDVGVYYCSQNTHVPPTFGQGTKVEIERTVAAPSVFIFPPSDEQLKSGTASVVCLLNNFYPREAKVQWKVDNALQSGNSQESVTEQDSKDSTYSLSSTLTLSKADYEKHKVYACEVTHQGLSSPVTKSFNRGEC"
3,148 % of control,"GpH7-B3 variant P238_08L/GpL16-k0 (antibody, human IgG1, kappa, homodimerized; also called Ho Ab) heavy: not shown light: DIVMTQSPLSLPVTPGEPASISCQASESLVHSNRNTYLHWYLQKPGQSPQLLIYKVSNRFSGVPDRFSGSGSGTDFTLKISRVEAEDVGVYYCSQNTHVPPTFGQGTKVEIERTVAAPSVFIFPPSDEQLKSGTASVVCLLNNFYPREAKVQWKVDNALQSGNSQESVTEQDSKDSTYSLSSTLTLSKADYEKHKVYACEVTHQGLSSPVTKSFNRGEC"
4,150 % of control,"GpH7-B3 variant P271_01G/GpL16-k0 (antibody, human IgG1, kappa, homodimerized; also called Ho Ab) heavy: not shown light: DIVMTQSPLSLPVTPGEPASISCQASESLVHSNRNTYLHWYLQKPGQSPQLLIYKVSNRFSGVPDRFSGSGSGTDFTLKISRVEAEDVGVYYCSQNTHVPPTFGQGTKVEIERTVAAPSVFIFPPSDEQLKSGTASVVCLLNNFYPREAKVQWKVDNALQSGNSQESVTEQDSKDSTYSLSSTLTLSKADYEKHKVYACEVTHQGLSSPVTKSFNRGEC"
5,113 % of control,"GpH7-B3 variant S267_07I/GpL16-k0 (antibody, human IgG1, kappa, homodimerized; also called Ho Ab) heavy: not shown light: DIVMTQSPLSLPVTPGEPASISCQASESLVHSNRNTYLHWYLQKPGQSPQLLIYKVSNRFSGVPDRFSGSGSGTDFTLKISRVEAEDVGVYYCSQNTHVPPTFGQGTKVEIERTVAAPSVFIFPPSDEQLKSGTASVVCLLNNFYPREAKVQWKVDNALQSGNSQESVTEQDSKDSTYSLSSTLTLSKADYEKHKVYACEVTHQGLSSPVTKSFNRGEC"
6,157 % of control,"GpH7-B3 variant L328_15Y/GpL16-k0 (antibody, human IgG1, kappa, homodimerized; also called Ho Ab) heavy: not shown light: DIVMTQSPLSLPVTPGEPASISCQASESLVHSNRNTYLHWYLQKPGQSPQLLIYKVSNRFSGVPDRFSGSGSGTDFTLKISRVEAEDVGVYYCSQNTHVPPTFGQGTKVEIERTVAAPSVFIFPPSDEQLKSGTASVVCLLNNFYPREAKVQWKVDNALQSGNSQESVTEQDSKDSTYSLSSTLTLSKADYEKHKVYACEVTHQGLSSPVTKSFNRGEC"
7,140 % of control,"GpH7-B3 variant L328_07I/GpL16-k0 (antibody, human IgG1, kappa, homodimerized; also called Ho Ab) heavy: not shown light: DIVMTQSPLSLPVTPGEPASISCQASESLVHSNRNTYLHWYLQKPGQSPQLLIYKVSNRFSGVPDRFSGSGSGTDFTLKISRVEAEDVGVYYCSQNTHVPPTFGQGTKVEIERTVAAPSVFIFPPSDEQLKSGTASVVCLLNNFYPREAKVQWKVDNALQSGNSQESVTEQDSKDSTYSLSSTLTLSKADYEKHKVYACEVTHQGLSSPVTKSFNRGEC"
8,142 % of control,"GpH7-B3 variant S239_09D/GpL16-k0 (antibody, human IgG1, kappa, homodimerized; also called Ho Ab) heavy: not shown light: DIVMTQSPLSLPVTPGEPASISCQASESLVHSNRNTYLHWYLQKPGQSPQLLIYKVSNRFSGVPDRFSGSGSGTDFTLKISRVEAEDVGVYYCSQNTHVPPTFGQGTKVEIERTVAAPSVFIFPPSDEQLKSGTASVVCLLNNFYPREAKVQWKVDNALQSGNSQESVTEQDSKDSTYSLSSTLTLSKADYEKHKVYACEVTHQGLSSPVTKSFNRGEC"
9,116 % of control,"GpH7-B3 variant S267_01G/GpL16-k0 (antibody, human IgG1, kappa, homodimerized; also called Ho Ab) heavy: not shown light: DIVMTQSPLSLPVTPGEPASISCQASESLVHSNRNTYLHWYLQKPGQSPQLLIYKVSNRFSGVPDRFSGSGSGTDFTLKISRVEAEDVGVYYCSQNTHVPPTFGQGTKVEIERTVAAPSVFIFPPSDEQLKSGTASVVCLLNNFYPREAKVQWKVDNALQSGNSQESVTEQDSKDSTYSLSSTLTLSKADYEKHKVYACEVTHQGLSSPVTKSFNRGEC"
10,145 % of control,"GpH7-B3 variant L328_04F/GpL16-k0 (antibody, human IgG1, kappa, homodimerized; also called Ho Ab) heavy: not shown light: DIVMTQSPLSLPVTPGEPASISCQASESLVHSNRNTYLHWYLQKPGQSPQLLIYKVSNRFSGVPDRFSGSGSGTDFTLKISRVEAEDVGVYYCSQNTHVPPTFGQGTKVEIERTVAAPSVFIFPPSDEQLKSGTASVVCLLNNFYPREAKVQWKVDNALQSGNSQESVTEQDSKDSTYSLSSTLTLSKADYEKHKVYACEVTHQGLSSPVTKSFNRGEC"
11,132 % of control,"GpH7-B3 variant S239_01G/GpL16-k0 (antibody, human IgG1, kappa, homodimerized; also called Ho Ab) heavy: not shown light: DIVMTQSPLSLPVTPGEPASISCQASESLVHSNRNTYLHWYLQKPGQSPQLLIYKVSNRFSGVPDRFSGSGSGTDFTLKISRVEAEDVGVYYCSQNTHVPPTFGQGTKVEIERTVAAPSVFIFPPSDEQLKSGTASVVCLLNNFYPREAKVQWKVDNALQSGNSQESVTEQDSKDSTYSLSSTLTLSKADYEKHKVYACEVTHQGLSSPVTKSFNRGEC"
12,110 % of control,"GpH7-B3 variant S337_14T/GpL16-k0 (antibody, human IgG1, kappa, homodimerized; also called Ho Ab) heavy: not shown light: DIVMTQSPLSLPVTPGEPASISCQASESLVHSNRNTYLHWYLQKPGQSPQLLIYKVSNRFSGVPDRFSGSGSGTDFTLKISRVEAEDVGVYYCSQNTHVPPTFGQGTKVEIERTVAAPSVFIFPPSDEQLKSGTASVVCLLNNFYPREAKVQWKVDNALQSGNSQESVTEQDSKDSTYSLSSTLTLSKADYEKHKVYACEVTHQGLSSPVTKSFNRGEC"
